# Laboratory results as given in article doi:10.1101/2025.09.16.675330.
# What was measured:
# [1] = molecular target: ChR024 (cation-conducting channelrhodopsin), full-length wild type, residues M1-T280; assay: cryo-EM structure
# Glu105 = assay: UV-vis; details: dark (ground) state, retinal-bound wild type; cited from earlier work
stoichiometry N [1],Substance,pKa (Glu105)
3,"ChR024 (cation-conducting channelrhodopsin), full-length wild type, residues M1-T280 (natural protein)",–
–,"ChR024 (cation-conducting channelrhodopsin) (not stated (uncultured organism; sequence mined from a metagenomic database, identifier IMGM3300027749|Ga0209084_1026585|Ga0209084_10265853))",8.25
